From patent US7727950

Legend:
[1] = tested on: T1, generic peptide substrate RARTLSFAEPG
T1 sequence: RARTLSFAEPG

[2] = tested on: T2, standard peptide substrate MHRQETVDCLK
T2 sequence: MHRQETVDCLK

Question: With “alpha-isoform of calmodulin-dependent protein kinase II (CaMKII)” as the substance, how does the Km [1] read?
Answer: Its Km is 300 µM.

Question: And the Km [2]?
Answer: The Km was 60 µM.
